From US9976134B2, “Thermolysin variants” (Danisco US Inc., priority 2007, dated 2018)
Substitutions are numbered along the chain they refer to. Names and notes keep the numbering of the source.

B1: I156E: single-substitution thermolysin variant (SEQ ID NO:3 numbering) (protein, listed as Geobacillus caldoproteolyticus)
chain: ITGTSTVGVGRGVLGDQKNINTTYSTYYYLQDNTRGNGIFTYDAKYRTTLPGSLWADADNQFFASYDAPAVDAHYYAGVTYDYYKNVHNRLSYDGNNAAIRSSVHYSQGYNNAFWNGSQMVYGDGDGQTFIPLSGGIDVVAHELTHAVTDYTAGLEYQNESGAINEAISDIFGTLVEFYANKNPDWEIGEDVYTPGISGDSLRSMSDPAKYGDPDHYSKRYTGTQDNGGVHINSGIINKAAYLISQGGTHYGVSVVGIGRDKLGKIFYRALTQYLTPTSNFSQLRAAAVQSATDLYGSTSQEVASVKQAFDAVGVK
B2: A058E: single-substitution thermolysin variant (SEQ ID NO:3 numbering) (protein, listed as Geobacillus caldoproteolyticus)
chain: B1 chain with A58E, E156I
B3: T278Y: single-substitution thermolysin variant (SEQ ID NO:3 numbering) (protein, listed as Geobacillus caldoproteolyticus)
chain: B1 chain with E156I, T278Y
B4: Q273W: single-substitution thermolysin variant (SEQ ID NO:3 numbering) (protein, listed as Geobacillus caldoproteolyticus)
chain: B1 chain with E156I, Q273W
B5: S065D: single-substitution thermolysin variant (SEQ ID NO:3 numbering) (protein, listed as Geobacillus caldoproteolyticus)
chain: B1 chain with S65D, E156I
B6: T278H: single-substitution thermolysin variant (SEQ ID NO:3 numbering) (protein, listed as Geobacillus caldoproteolyticus)
chain: B1 chain with E156I, T278H
B7: A058C: single-substitution thermolysin variant (SEQ ID NO:3 numbering) (protein, listed as Geobacillus caldoproteolyticus)
chain: B1 chain with A58C, E156I
B8: T049S: single-substitution thermolysin variant (SEQ ID NO:3 numbering) (protein, listed as Geobacillus caldoproteolyticus)
chain: B1 chain with T49S, E156I
B9: N280M: single-substitution thermolysin variant (SEQ ID NO:3 numbering) (protein, listed as Geobacillus caldoproteolyticus)
chain: B1 chain with E156I, N280M
B10: Q273A: single-substitution thermolysin variant (SEQ ID NO:3 numbering) (protein, listed as Geobacillus caldoproteolyticus)
chain: B1 chain with E156I, Q273A
B11: Q061M: single-substitution thermolysin variant (SEQ ID NO:3 numbering) (protein, listed as Geobacillus caldoproteolyticus)
chain: B1 chain with Q61M, E156I
B12: A056E: single-substitution thermolysin variant (SEQ ID NO:3 numbering) (protein, listed as Geobacillus caldoproteolyticus)
chain: B1 chain with A56E, E156I
B13: T278S: single-substitution thermolysin variant (SEQ ID NO:3 numbering) (protein, listed as Geobacillus caldoproteolyticus)
chain: B1 chain with E156I, T278S
B14: Q273N: single-substitution thermolysin variant (SEQ ID NO:3 numbering) (protein, listed as Geobacillus caldoproteolyticus)
chain: B1 chain with E156I, Q273N
B15: T006A: single-substitution thermolysin variant (SEQ ID NO:3 numbering) (protein, listed as Geobacillus caldoproteolyticus)
chain: B1 chain with T6A, E156I
B16: T278C: single-substitution thermolysin variant (SEQ ID NO:3 numbering) (protein, listed as Geobacillus caldoproteolyticus)
chain: B1 chain with E156I, T278C
B17: T278N: single-substitution thermolysin variant (SEQ ID NO:3 numbering) (protein, listed as Geobacillus caldoproteolyticus)
chain: B1 chain with E156I, T278N
B18: Q273T: single-substitution thermolysin variant (SEQ ID NO:3 numbering) (protein, listed as Geobacillus caldoproteolyticus)
chain: B1 chain with E156I, Q273T
B19: S065W: single-substitution thermolysin variant (SEQ ID NO:3 numbering) (protein, listed as Geobacillus caldoproteolyticus)
chain: B1 chain with S65W, E156I
B20: N280I: single-substitution thermolysin variant (SEQ ID NO:3 numbering) (protein, listed as Geobacillus caldoproteolyticus)
chain: B1 chain with E156I, N280I
B21: N280S: single-substitution thermolysin variant (SEQ ID NO:3 numbering) (protein, listed as Geobacillus caldoproteolyticus)
chain: B1 chain with E156I, N280S
B22: S065P: single-substitution thermolysin variant (SEQ ID NO:3 numbering) (protein, listed as Geobacillus caldoproteolyticus)
chain: B1 chain with S65P, E156I
B23: N280E: single-substitution thermolysin variant (SEQ ID NO:3 numbering) (protein, listed as Geobacillus caldoproteolyticus)
chain: B1 chain with E156I, N280E
B24: N280L: single-substitution thermolysin variant (SEQ ID NO:3 numbering) (protein, listed as Geobacillus caldoproteolyticus)
chain: B1 chain with E156I, N280L
B25: Q061E: single-substitution thermolysin variant (SEQ ID NO:3 numbering) (protein, listed as Geobacillus caldoproteolyticus)
chain: B1 chain with Q61E, E156I

What was measured:
[1] = Stability assay in 25% TIDE 2X detergent without DTPA (residual Abz-AGLA-Nba protease activity); type: physicochemical; details: 180 min at 50°C; variant residual AGLA activity divided by wild-type residual activity
Protocol: (§1) The stability of thermolysin and variants thereof was measured after incubation under defined conditions in the presence of 25% TIDE® 2× detergent. The initial and residual activity was determined.
(§2) MTPs were obtained from Costar (type 9017) and from Greiner (black plate, type 655076). Test Method Unstressed Conditions:
(§3) First, 20 μl thermolysin containing culture supernatant was diluted with 180 μl MES assay buffer. Then, 20 μl diluted supernatant was diluted further with 180 μl MES assay buffer. Subsequently 10 μl of this dilution was transferred into 190 μl AGLA-substrate solution in a pre-warmed plate (Greiner 655076) at 25° C. Any air bubbles present were blown away and the plate was measured according to the AGLA protease assay protocol described below.
(§4) First, 20 μl of culture supernatant was diluted with 180 μl 27.5% TIDE®+detergent solution and placed in the iEMS shaker. The plate covered with a plate seal was incubated for a total of 60 minutes at 32° C. at 900 rpm. In addition, 20 μl of culture supernatant was diluted with 180 μl 27.5% TIDE®−solution and placed in the iEMS shaker. This plate covered with a plate seal was incubated for a total of 180 minutes at 50° C. at 900 rpm.
(§5) Subsequently after the respective incubations, 20 μl of either of these solutions were diluted with 180 μl MES assay buffer and 10 μl of this dilution were diluted with 190 μl AGLA-substrate solution in a pre-warmed plate (Greiner 655076) at 25° C.
(§6) Fluorescence measurements were taken at excitation of 350 nm and emission of 420 nm. The spectrofluorometer software calculated the reaction rates (=slope) of the increase in fluorescence for each well to a linearly regressed line of (milli-) RFU/min. The ratio of the residual and initial AGLA activity was used to express the 25% TIDE® 2× stability as follows: Percentage of residual activity=[slope of stressed]*100/[slope of unstressed]
(§7) For each sample (thermolysin and variants thereof) the performance index was calculated by dividing the residual activity of the variant by the residual activity of thermolysin. The performance index compared the stability of the variant and the standard thermolysin enzyme (e.g., wild type or parental enzyme), determined under the same conditions.
(§8) In these experiments, the liberation of Abz-AG by protease cleavage of Abz-AGLA-Nba was monitored by fluorescence spectrometry (Ex. 350/Em. 420). The rate of appearance of Abz-AG was a measure of proteolytic activity.
(§9) The Abz-AGLA-Nba assay solution was prepared by adding 1 ml of the Abz-AGLA-Nba stock to 19 ml MES substrate buffer and mixed well for at least 2 minutes. Subsequently the thermolysin or variants thereof containing culture supernatants were diluted with MES assay buffer to a concentration of 1-6 μg protein per ml.
(§10) The assay was performed by adding 10 μl of diluted protease solution to each well, followed by the addition of 190 μl Abz-AGLA-Nba assay solution that was pre-equilibrated for at least 15 minutes at 25° C. The solutions were vigorously mixed, and the liberation of Abz-AG by protease cleavage of Abz-AGLA-Nba was monitored by fluorescence spectrometry at 25° C. in kinetic mode with excitation set at 350 nm and emission set at 420 nm. The rate of appearance of Abz-AG was a measure of proteolytic activity in the samples. The protease activity was expressed as RFU (relative fluorescence units·min^−1).
(§11) As described in Example 1, the stability of thermolysin variants was measured by determining the AGLA activity before and after incubation in the presence of TIDE® 2× heavy duty liquid (HDL) detergent at an elevated temperature. The tables contain the relative stability values compared to wild-type thermolysin, which is the quotient of the variant residual activity divided by the wild-type residual activity. A value greater than one indicates higher stability in the presence of detergent. […]

[2] = Stability assay in 25% TIDE 2X detergent with DTPA (residual Abz-AGLA-Nba protease activity); type: physicochemical; details: 60 min at 32°C; variant residual AGLA activity divided by wild-type residual activity
Protocol: as §1, §2, §3, §4, §5, §6, §7, §8, §9, §10, §11

Molecule	PI (relative stability), 25% TIDE 2X without DTPA [1]	PI (relative stability), 25% TIDE 2X with DTPA [2]
B1	1.09	1.58
B2	1.24	
B3		1.05
B4		1.05
B5	1.20	
B6		1.07
B7	1.01	
B8	1.26	1.08
B9		1.16
B10		1.03
B11	1.01	
B12	1.07	
B13		1.08
B14		1.25
B15		1.01
B16		1.05
B17		1.07
B18		1.08
B19	1.09	
B20		1.16
B21		1.19
B22	1.18	
B23		1.13
B24		1.21
B25	1.05	
